# Patent US12503511 (COMPASS THERAPEUTICS, dated 2025)
# T1: murine PD-1 expressed on cells (murine, UniProt Q02242 25-288)
# T1 construct: whole, on cells; also called muPD-1; mouse PD-1
# T1 sequence (looked up): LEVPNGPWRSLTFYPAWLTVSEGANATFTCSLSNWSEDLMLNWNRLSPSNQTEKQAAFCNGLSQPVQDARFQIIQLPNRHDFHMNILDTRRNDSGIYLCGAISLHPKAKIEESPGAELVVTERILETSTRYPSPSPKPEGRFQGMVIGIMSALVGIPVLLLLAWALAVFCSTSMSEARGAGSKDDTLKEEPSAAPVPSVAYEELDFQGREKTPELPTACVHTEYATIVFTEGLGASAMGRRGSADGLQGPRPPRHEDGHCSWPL
# Experiments:
# [1] = target: T2, purified recombinant His tagged human PD-L1 (human, UniProt Q9NZQ7 19-238); test: SPR (Carterra MX96), antibody on chip, His-tagged human PD-L1 injected
# T2 construct: not shown: His tag
# T2 sequence (Q9NZQ7 19-238 limits assumed): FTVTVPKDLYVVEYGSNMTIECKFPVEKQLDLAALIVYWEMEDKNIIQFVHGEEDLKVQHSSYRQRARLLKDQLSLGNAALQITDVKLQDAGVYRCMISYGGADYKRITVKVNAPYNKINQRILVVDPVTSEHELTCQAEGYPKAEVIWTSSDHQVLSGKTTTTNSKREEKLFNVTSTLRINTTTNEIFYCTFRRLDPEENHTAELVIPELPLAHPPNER
# [2] = target: T3, cyno PD-L1 expressed on cells (cynomolgus); test: cell binding EC50 on HEK-cyno PD-L1; fold improvement, reference taken as parent mAb24
# T3 construct: whole, on cells; also called cynomolgus PD-L1
# [3] = target: T3, cyno PD-L1 expressed on cells; test: cell binding titration (MFI); binder and target taken from the legend paragraph 94 and paragraph 377 (parental clone mAb1, CHO cells expressing cynomolgus PD-L1); the panel itself prints 'mAb28' and 'CHO/CyPD-1'
# [4] = target: T4, human PD-L1 expressed on cells (human, UniProt Q9NZQ7 19-290); test: cell binding titration, HEK cells expressing human PD-L1
# T4 construct: also called huPDL1; human PD-L1 on HEK cells
# T4 sequence (Q9NZQ7 19-290 limits assumed): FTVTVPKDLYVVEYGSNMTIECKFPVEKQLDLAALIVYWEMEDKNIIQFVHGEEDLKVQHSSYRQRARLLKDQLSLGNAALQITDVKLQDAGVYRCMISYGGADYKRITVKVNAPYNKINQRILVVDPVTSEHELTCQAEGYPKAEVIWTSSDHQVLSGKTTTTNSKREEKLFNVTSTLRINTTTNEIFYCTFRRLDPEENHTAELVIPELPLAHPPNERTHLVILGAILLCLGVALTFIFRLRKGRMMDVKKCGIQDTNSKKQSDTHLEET
# [5] = target: T3, cyno PD-L1 expressed on cells; test: cell binding titration, HEK cells expressing cyno PD-L1
# [6] = target: T4, human PD-L1 expressed on cells; test: cell binding titration (MFI); binder and target taken from the legend paragraph 94 and paragraph 377 (parental clone mAb1, CHO cells expressing human PD-L1); the panel itself prints 'mAb28' and 'CHO/HuPD-1'
# [7] = target: T5, murine PD-L1 expressed on cells (murine, UniProt Q9EP73 19-290); test: cell binding EC50 on A20-murine PD-L1; fold improvement, reference taken as parent mAb24
# T5 construct: whole, on cells; also called muPDL1; mouse PD-L1
# T5 sequence (Q9EP73 19-290): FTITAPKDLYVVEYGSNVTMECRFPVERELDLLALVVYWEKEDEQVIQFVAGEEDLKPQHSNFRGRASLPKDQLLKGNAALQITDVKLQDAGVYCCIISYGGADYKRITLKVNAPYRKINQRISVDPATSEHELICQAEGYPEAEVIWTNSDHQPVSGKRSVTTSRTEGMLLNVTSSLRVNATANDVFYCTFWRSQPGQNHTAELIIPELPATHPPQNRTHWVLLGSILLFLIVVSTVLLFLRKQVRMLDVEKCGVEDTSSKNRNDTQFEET
# [8] = target: T4, human PD-L1 expressed on cells; test: cell binding EC50 on HEK-human PD-L1; fold improvement, reference taken as parent mAb24
# [9] = target: T5, murine PD-L1 expressed on cells; test: cell binding titration, A20 cells expressing murine PD-L1
# [10] = target: T2, purified recombinant His tagged human …; test: SPR KD; fold improvement, reference taken as parent mAb24
# [11] = target: T6, cyno PD-1 expressed on cells (cynomolgus); test: cell binding EC50 on CHO-cyno PD-1; fold improvement over parent mAb25
# T6 construct: whole, on cells; also called cyPD-1; cynomolgus PD-1
# [12] = target: T1, murine PD-1 expressed on cells; test: cell binding titration, CHO cells expressing murine PD-1
# [13] = target: T1, murine PD-1 expressed on cells; test: cell binding titration (MFI) on CHO cells expressing mouse PD-1, panel titled 'Cell Binding: CHO/MsPD-1'
# [14] = target: T7, human PD-1 expressed on cells (human, UniProt Q15116 25-288); test: cell binding EC50 on CHO-human PD-1; fold improvement over parent mAb25
# T7 construct: also called huPD-1; CHO cells expressing human PD-1
# T7 sequence (Q15116 25-288 limits assumed): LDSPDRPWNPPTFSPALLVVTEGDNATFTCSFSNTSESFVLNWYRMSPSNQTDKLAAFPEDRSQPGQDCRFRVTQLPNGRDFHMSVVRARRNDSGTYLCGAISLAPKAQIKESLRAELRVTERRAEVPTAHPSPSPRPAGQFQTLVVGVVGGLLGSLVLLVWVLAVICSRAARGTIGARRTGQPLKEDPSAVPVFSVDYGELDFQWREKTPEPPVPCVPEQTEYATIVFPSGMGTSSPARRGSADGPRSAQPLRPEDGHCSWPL
# [15] = target: T7, human PD-1 expressed on cells; test: cell binding titration, CHO cells expressing human PD-1
# [16] = target: T8, purified recombinant His tagged human PD-1 (human, UniProt Q15116 25-170); test: SPR KD; fold improvement over parent mAb25
# T8 construct: not shown: His tag
# T8 sequence (Q15116 25-170 limits assumed): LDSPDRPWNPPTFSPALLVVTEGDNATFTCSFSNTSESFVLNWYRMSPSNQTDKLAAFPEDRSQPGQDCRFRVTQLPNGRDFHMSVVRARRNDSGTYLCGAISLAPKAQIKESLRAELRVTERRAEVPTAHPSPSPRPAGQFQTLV
# [17] = target: T6, cyno PD-1 expressed on cells; test: cell binding titration, CHO cells expressing cyno PD-1
# [18] = target: T8, purified recombinant His tagged human …; test: SPR (Carterra MX96), antibody on chip, His-tagged human PD-1 injected
# [19] = target: T7, human PD-1 expressed on cells; test: cell binding titration (MFI) on CHO cells expressing human PD-1, panel titled 'Cell Binding: CHO/HuPD-1'
# [20] = target: T6, cyno PD-1 expressed on cells; test: cell binding titration (MFI) on CHO cells expressing cynomolgus PD-1, panel titled 'Cell Binding: CHO/CyPD-1'
Kd [1] [nM],Fold Improvement [2] [fold],EC50 [4] [nM],EC50 [5] [nM],Fold Improvement [7] [fold],Fold Improvement [8] [fold],EC50 [9] [nM],Fold Improvement [10] [fold],Binder,also measured
4.16,3.21,0.04,0.09,5.26,3.3,0.74,1.1,"mAb1 (antibody, V domains shown, also called parental clone mAb1; anti-PD-L1 antibody mAb1) VH: QVQLVQSGAEVKKPGSSVKVSCKASGGTFSSYAINWVRQAPGQGLEWMGGIIPILGAATYAQKFQGRVTITADESTSTAYMELSSLRSEDTAVYYCARLKGELKDAFDIWGQGTLVTVSS VL: not shown",EC50 (read off the curve) [3]: ~0.04 nM; EC50 (read off the curve) [6]: ~0.1 nM
6.3,3.05,0.04,0.09,–,3.2,–,0.7,"mAb10 (antibody, V domains shown) VH: QVQLVQSGAEVKKPGSSVKVSCKASGGTFSSYAINWVRQAPGQGLEWMGGIIPVFGTATYAQKFQGRVTITADESTSTAYMELSSLRSEDTAVYYCARLKNELKDAFDIWGQGTLVTVSS VL: not shown",binding result [9]: no binding
2.2,3.76,0.06,0.08,1.96,2.2,2,2,"mAb2 (antibody, V domains shown) VH: QVQLVQSGAEVKKPGSSVKVSCKASGGTFSSYAINWVRQAPGQGLEWMGGIIPVFGTATYAQKFQGRVTITADESTSTAYMELSSLRSEDTAVYYCARLKGELKDAFDIWGQGTMVTVSS VL: not shown",–
0.9,–,0.11,–,3.08,1.3,1.27,4.8,"mAb3 (antibody, V domains shown) VH: QVQLVQSGAEVKKPGSSVKVSCKASGGTFSSYAINWVRQAPGQGLEWMGGIIPVFGTATYAQKFQGRVTITADESTSTAYMELSSLRSEDTAVYYCARLKGELKDAFDIWGQGTMVTVSS VL: not shown",–
527,4.96,0.38,0.06,4.67,0.4,0.84,–,"mAb18 (antibody, V domains shown) VH: QVQLVQSGAEVKKPGSSVKVSCKASGGTFSSYAINWVRQAPGQGLEWMGGIIPILGTATYAQKFQGRVTITADESTSTAYMELSSLRSEDTAVYYCARRKGELKDAFDIWGQGTLVTVSS VL: not shown",–
53.9,2.31,0.13,0.12,1.47,1,2.66,0.1,"mAb20 (antibody, V domains shown) VH: QVQLVQSGAEVKKPGSSVKVSCKASGGTFSSYAINWVRQAPGQGLEWMGGIIPIFGKATYAQKFQGRVTITADESTSTAYMELSSLRSEDTAVYYCARRKGELKDAFDIWGQGTLVTVSS VL: not shown",–
–,–,–,–,–,–,–,–,"mAb28 (antibody, V domains shown, also called parental clone mAb28; anti-PD-1 IgG1 antibody (mAb28)) VH: EVQLLESGGGLVQPGGSLRLSCAASGFTFSSYAMLWVRQAPGKGLEWVSAISNSGTYTYYADSVKGRFTISRDNSKNTLYLQMNSLRAEDTAVYYCARGLDFIVGYTGNDYWGQGTLVTVSS VL: not shown",Fold improvement over Parent [11]: 5.8 fold; EC50 [12]: 0.814 nM; EC50 (read off the curve) [13]: ~0.3 nM; Fold improvement over Parent [14]: 0.2 fold; EC50 [15]: 3.94 nM; Fold improvement over Parent [16]: 43 fold; EC50 [17]: 1.48 nM; Kd [18]: 5.6 nM; EC50 (read off the curve) [19]: ~0.6 nM; EC50 (read off the curve) [20]: ~0.4 nM
